According to PMC12098889, “Structural insight into PIF6-mediated red light signal transduction of plant phytochrome B” (Cell Discovery, 2025):
Where a chain is given by its changes, count along the chain named. Names may count otherwise. One block for each molecule: values may come before it.

B1: phytochrome B (phyB), full length (1‒1172) (receptor, Arabidopsis, UniProt P14713 1-1172, looked up)
chain: MVSGVGGSGGGRGGGRGGEEEPSSSHTPNNRRGGEQAQSSGTKSLRPRSNTESMSKAIQQYTVDARLHAVFEQSGESGKSFDYSQSLKTTTYGSSVPEQQITAYLSRIQRGGYIQPFGCMIAVDESSFRIIGYSENAREMLGIMPQSVPTLEKPEILAMGTDVRSLFTSSSSILLERAFVAREITLLNPVWIHSKNTGKPFYAILHRIDVGVVIDLEPARTEDPALSIAGAVQSQKLAVRAISQLQALPGGDIKLLCDTVVESVRDLTGYDRVMVYKFHEDEHGEVVAESKRDDLEPYIGLHYPATDIPQASRFLFKQNRVRMIVDCNATPVLVVQDDRLTQSMCLVGSTLRAPHGCHSQYMANMGSIASLAMAVIINGNEDDGSNVASGRSSMRLWGLVVCHHTSSRCIPFPLRYACEFLMQAFGLQLNMELQLALQMSEKRVLRTQTLLCDMLLRDSPAGIVTQSPSIMDLVKCDGAAFLYHGKYYPLGVAPSEVQIKDVVEWLLANHADSTGLSTDSLGDAGYPGAAALGDAVCGMAVAYITKRDFLFWFRSHTAKEIKWGGAKHHPEDKDDGQRMHPRSSFQAFLEVVKSRSQPWETAEMDAIHSLQLILRDSFKESEAAMNSKVVDGVVQPCRDMAGEQGIDELGAVAREMVRLIETATVPIFAVDAGGCINGWNAKIAELTGLSVEEAMGKSLVSDLIYKENEATVNKLLSRALRGDEEKNVEVKLKTFSPELQGKAVFVVVNACSSKDYLNNIVGVCFVGQDVTSQKIVMDKFINIQGDYKAIVHSPNPLIPPIFAADENTCCLEWNMAMEKLTGWSRSEVIGKMIVGEVFGSCCMLKGPDALTKFMIVLHNAIGGQDTDKFPFPFFDRNGKFVQALLTANKRVSLEGKVIGAFCFLQIPSPELQQALAVQRRQDTECFTKAKELAYICQVIKNPLSGMRFANSLLEATDLNEDQKQLLETSVSCEKQISRIVGDMDLESIEDGSFVLKREEFFLGSVINAIVSQAMFLLRDRGLQLIRDIPEEIKSIEVFGDQIRIQQLLAEFLLSIIRYAPSQEWVEIHLSQLSKQMADGFAAIRTEFRMACPGEGLPPELVRDMFHSSRWTSPEGLGLSVCRKILKLMNGEVQYIRESERSYFLIILELPVPRKRPLSTASGSGDMMLMMPY
modifications: PΦB chromophore covalently linked to C357
notes: Arabidopsis phytochrome B, residues 1-1172, At2g18790; The same protein is Pr in the dark and Pfr after red light; The purification uses Ni-NTA, but no His tag on phyB is described; also called wild-type phyB; phyB-Pr (dark); source: E. coli BL21(DE3), co-expressed with HO1 and HY2, purified (Ni-NTA, anti-FLAG resin, Source Q); not shown: 3× Flag ([residues removed]), N-terminal, kept
B2: phyB^T449C (with C925S, C936S, C972S and C1121S) (receptor, Arabidopsis, UniProt P14713 1-1172, looked up)
chain: B1 chain with T449C, C925S, C936S, C972S, C1121S
modifications: PΦB chromophore covalently bound
notes: Arabidopsis phytochrome B (1-1172) with T449C for cross-linking and C925S, C936S, C972S, C1121S against nonspecific cross-linking; source: E. coli BL21(DE3), purified
B3: phyB^Y276H/T449C (with C925S, C936S, C972S and C1121S) (receptor, Arabidopsis, UniProt P14713 1-1172, looked up)
chain: B1 chain with Y276H, T449C, C925S, C936S, C972S, C1121S
modifications: PΦB chromophore covalently bound
notes: Arabidopsis phytochrome B (1-1172) with Y276H, T449C and C925S, C936S, C972S, C1121S; source: E. coli BL21(DE3), purified
B4: PIF6α (1‒363) (natural protein, Arabidopsis, UniProt Q8L5W7 1-363, looked up)
chain: MMFLPTDYCCRLSDQEYMELVFENGQILAKGQRSNVSLHNQRTKSIMDLYEAEYNEDFMKSIIHGGGGAITNLGDTQVVPQSHVAAAHETNMLESNKHVDDSETLKASSSKRMMVDYHNRKKIKFIPPDEQSVVADRSFKLGFDTSSVGFTEDSEGSMYLSSSLDDESDDARPQVPARTRKALVKRKRNAEAYNSPERNQRNDINKKMRTLQNLLPNSHKDDNESMLDEAINYMTNLQLQVQMMTMGNRFVTPSMMMPLGPNYSQMGLAMGVGMQMGEQQFLPAHVLGAGLPGINDSADMLRFLNHPGLMPMQNSAPFIPTENCSPQSVPPSCAAFPNQIPNPNSLSNLDGATLHKKSRKTNR
notes: Modified pCold TF vector; purified on Ni resin, so a His tag is likely present but is not described; also called full-length PIF6α; source: E. coli BL21(DE3), purified (Ni-NTA, Strep-Tactin, Source Q); not shown: StrepII, C-terminal, kept
B5: phyB^Y276H, full length (receptor, Arabidopsis, UniProt P14713 1-1172, looked up)
chain: B1 chain with Y276H
modifications: PΦB chromophore covalently bound
notes: Arabidopsis phytochrome B, residues 1-1172, At2g18790, with Y276H; also called constitutively active mutant phyB^Y276H; source: E. coli BL21(DE3), co-expressed with HO1 and HY2, purified (Ni-NTA, anti-FLAG resin, Source Q); not shown: 3× Flag ([residues removed]), N-terminal, kept
B6: phyBN^Y276H (1‒908) (domain or fragment, Arabidopsis, UniProt P14713 1-908, looked up)
chain: MVSGVGGSGGGRGGGRGGEEEPSSSHTPNNRRGGEQAQSSGTKSLRPRSNTESMSKAIQQYTVDARLHAVFEQSGESGKSFDYSQSLKTTTYGSSVPEQQITAYLSRIQRGGYIQPFGCMIAVDESSFRIIGYSENAREMLGIMPQSVPTLEKPEILAMGTDVRSLFTSSSSILLERAFVAREITLLNPVWIHSKNTGKPFYAILHRIDVGVVIDLEPARTEDPALSIAGAVQSQKLAVRAISQLQALPGGDIKLLCDTVVESVRDLTGYDRVMVHKFHEDEHGEVVAESKRDDLEPYIGLHYPATDIPQASRFLFKQNRVRMIVDCNATPVLVVQDDRLTQSMCLVGSTLRAPHGCHSQYMANMGSIASLAMAVIINGNEDDGSNVASGRSSMRLWGLVVCHHTSSRCIPFPLRYACEFLMQAFGLQLNMELQLALQMSEKRVLRTQTLLCDMLLRDSPAGIVTQSPSIMDLVKCDGAAFLYHGKYYPLGVAPSEVQIKDVVEWLLANHADSTGLSTDSLGDAGYPGAAALGDAVCGMAVAYITKRDFLFWFRSHTAKEIKWGGAKHHPEDKDDGQRMHPRSSFQAFLEVVKSRSQPWETAEMDAIHSLQLILRDSFKESEAAMNSKVVDGVVQPCRDMAGEQGIDELGAVAREMVRLIETATVPIFAVDAGGCINGWNAKIAELTGLSVEEAMGKSLVSDLIYKENEATVNKLLSRALRGDEEKNVEVKLKTFSPELQGKAVFVVVNACSSKDYLNNIVGVCFVGQDVTSQKIVMDKFINIQGDYKAIVHSPNPLIPPIFAADENTCCLEWNMAMEKLTGWSRSEVIGKMIVGEVFGSCCMLKGPDALTKFMIVLHNAIGGQDTDKFPFPFFDRNGKFVQALLTANKRVSLEGKVIGAFCFLQIPS
modifications: PΦB chromophore covalently bound
notes: Arabidopsis phytochrome B, residues 1-908, with Y276H; also called HKRD-truncated phyBN^Y276H; truncated phyBN^Y276H (M1‒S908); source: E. coli BL21(DE3), co-expressed with HO1 and HY2, purified; not shown: 3× Flag, N-terminal, kept

Experiments:
[1] = biological target: phytochrome B (phyB), full length (1‒1172) (Arabidopsis) (UniProt P14713)
[2] = biological target: PIF6β (1‒182) (Arabidopsis); assay: cryo-EM structure; phyB and PIF6β mixed ~1:1.5, on ice under red light (665 nm, 800 μmol m^-2 s^-1), SEC in 25 mM HEPES pH 7.8, 250 mM KCl, 10 mM DTT, 1 mM EDTA; irradiated with red light 20 min before freezing
[3] = biological target: the molecule itself; assay: as above
[4] = biological target: the molecule itself; assay: cross-linking; thiol-directed cross-linking with 1 mM M2M, ~2 μM protein, on ice 30 min, under red light (665 nm, 767 μmol m^-2 s^-1); 25 mM Tris-HCl pH 8.0, 150 mM NaCl; reversed by DTT; more cross-linked band with the PIF6 fragment 13-100
phyB^Y276H, full length = biological target: B5; assay: pull-down; StrepII-tagged PIF6 forms or PIFNs held on Strep-Tactin Sepharose, 3× Flag-phyB or phyB^Y276H in the mixture; in the dark, 4 °C, 2 h; buffer E (100 mM Tris-HCl pH 8.0, 150 mM NaCl, 1 mM EDTA); SDS-PAGE with Coomassie and zinc-induced fluorescence; conditions: both partners purified
[5] = biological target: the molecule itself; assay: cryo-EM structure; phyB^Y276H or phyBN^Y276H mixed with PIF6β ~1:1.5; full-length complex prepared in the dark; SEC on Superose 6 Increase before freezing
[6] = biological target: PIF6β (1‒182) (Arabidopsis); assay: as above

Pfr→Pr thermal reversion at 25 °C: amount of phyB-Pfr remaining after 400 min with PIF6β against phyB alone [1]: 8 fold
Molecule: PIF6β (1‒182) (natural protein)

stoichiometry N (phyB per PIF6β) [2]: 2
Molecule: phytochrome B (phyB), full length (1‒1172) (from UniProt P14713 1-1172) (receptor)

Molecule: B1
binding result [3]: binds

Molecule: B2
binding result [4]: binds

Molecule: B3
binding result [4]: binds

Molecule: B4
binding result (phyB^Y276H, full length): binds

Molecule: B5
binding result [5]: binds
stoichiometry N (phyB per PIF6β) [6]: 2

Molecule: B6
binding result [5]: binds
